Test results published in article PMC11272584 (Nature Metabolism, 2024).

Assays:
GIPR S382Y = molecular target: T1, GIPR S382Y (Homo sapiens, UniProt P48546, S382Y); test: cAMP accumulation; type: cell-based
T1 construct: host or cells: HEK293
T1 sequence (P48546 22-466 S382Y): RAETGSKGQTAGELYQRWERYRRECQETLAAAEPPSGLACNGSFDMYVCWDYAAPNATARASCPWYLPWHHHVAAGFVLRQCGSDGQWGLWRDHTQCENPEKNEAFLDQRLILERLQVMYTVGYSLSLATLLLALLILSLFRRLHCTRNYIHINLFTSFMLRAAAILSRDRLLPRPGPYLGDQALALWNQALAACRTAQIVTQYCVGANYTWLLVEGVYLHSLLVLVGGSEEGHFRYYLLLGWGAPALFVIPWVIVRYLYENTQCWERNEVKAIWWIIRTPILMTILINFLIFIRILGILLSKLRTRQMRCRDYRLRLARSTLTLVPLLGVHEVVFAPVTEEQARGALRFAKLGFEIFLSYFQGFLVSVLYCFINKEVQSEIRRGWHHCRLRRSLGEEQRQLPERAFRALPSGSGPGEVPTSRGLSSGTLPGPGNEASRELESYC
Experimental: (§1) HEK293 (CRL-1573, American Type Culture Collection) and β-arrestin 1/2 knockout cells, generated from HEK293A[48], were used for cAMP measurement, homologues competition binding and β-arrestin 2 recruitment. […] Both cell lines were cultured at 5% CO2 at 37 °C in Roswell Park Memorial Institute GlutaMAX-I supplemented with 10% fetal bovine serum, 180 units ml^−1 penicillin, and 45 g ml^−1 streptomycin. For the cAMP and binding experiments, cells were transfected with the calcium phosphate precipitation method[49]. The polyethyleneimine (PEI) transfection method was used for the β-arrestin 2 recruitment assays[50], endosomal signalling and basal receptor localization assays, while the lipofectamine transfection method was used for the internalization assay.
(§2) cAMP production was measured with the DiscoverX Hithunter cAMP assay according to the manufacturer’s protocol (DiscoverX). […] On the day of the assay, the cells were washed twice with HEPES-buffered saline (HBS) and incubated with HBS and 1 mM 3-isobutyl-1-methylxanthine for 30 min at 37 °C. […] After a 3-h incubation on a shaking table in the dark, the cAMP accumulation was measured based on luminescence with a Perkin Elmer EnVision 2104 Multilabel Microplate Reader. […]

GIPR variants (groups) [1] = test: cAMP accumulation; type: cell-based, human; conditions: for In vitro groups (cAMP): cAMP part of the in vitro group; for percentage_camp: cAMP production compared with WT; for Beta, cAMP: in vitro cAMP production per GIPR variant
GIPR variants (groups) [2] = test: β-arrestin 2 recruitment (BRET); conditions: for In vitro groups (β-arrestin): arr part of the in vitro group; for Beta, Barr: in vitro β-arrestin recruitment per GIPR variant;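 on all read-outs here: BRET readout of β-arrestin 2 recruitment in transiently transfected HEK293 cells expressing WT GIPR or a GIPR variant plus GPCR kinase 2, Rluc8 donor and citrine acceptor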
Experimental: Both cell lines were cultured at 5% CO2 at 37 °C in Roswell Park Memorial Institute GlutaMAX-I supplemented with 10% fetal bovine serum, 180 units ml^−1 penicillin, and 45 g ml^−1 streptomycin. […] The polyethyleneimine (PEI) transfection method was used for the β-arrestin 2 recruitment assays[50], endosomal signalling and basal receptor localization assays, while the lipofectamine transfection method was used for the internalization assay.
Measurement of β-arrestin 2 recruitment was performed with a BRET assay. Two days before the assay, the HEK293 cells were transiently transfected with either WT GIPR or the GIPR variants together with the donor Rluc8-Arrestin-3-Sp1, the acceptor mem-linker-citrine-SH3 and the GPCR kinase 2 to facilitate β-arrestin 2 recruitment. On assay day, the cells were washed with PBS and resuspended in PBS supplemented with 5 mmol l^−1 glucose. Subsequently, 85 µl of the cell suspension was transferred to a white 96-well plate and 10 µl of 50 µM coelenterazine-h was added.

GIPR S415I = molecular target: T2, GIPR S415I (Homo sapiens, UniProt P48546, S415I); test: cAMP accumulation; type: cell-based
T2 construct: host or cells: HEK293
T2 sequence (P48546 22-466 S415I): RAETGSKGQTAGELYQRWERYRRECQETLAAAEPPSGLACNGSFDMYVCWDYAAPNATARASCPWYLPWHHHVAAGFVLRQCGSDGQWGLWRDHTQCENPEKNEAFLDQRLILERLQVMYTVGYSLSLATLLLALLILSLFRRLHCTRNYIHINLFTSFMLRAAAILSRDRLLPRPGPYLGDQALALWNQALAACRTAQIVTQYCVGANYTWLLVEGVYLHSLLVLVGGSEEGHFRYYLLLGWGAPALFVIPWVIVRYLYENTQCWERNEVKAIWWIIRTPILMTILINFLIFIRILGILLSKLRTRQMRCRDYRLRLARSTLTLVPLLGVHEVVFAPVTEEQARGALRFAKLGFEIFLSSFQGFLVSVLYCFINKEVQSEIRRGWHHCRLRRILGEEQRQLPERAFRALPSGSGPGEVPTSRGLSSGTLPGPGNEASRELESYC
Experimental: as §1, §2

GIPR V399M = molecular target: T3, GIPR V399M (Homo sapiens, UniProt P48546, V399M); test: cAMP accumulation; type: cell-based
T3 construct: host or cells: HEK293
T3 sequence (P48546 22-466 V399M): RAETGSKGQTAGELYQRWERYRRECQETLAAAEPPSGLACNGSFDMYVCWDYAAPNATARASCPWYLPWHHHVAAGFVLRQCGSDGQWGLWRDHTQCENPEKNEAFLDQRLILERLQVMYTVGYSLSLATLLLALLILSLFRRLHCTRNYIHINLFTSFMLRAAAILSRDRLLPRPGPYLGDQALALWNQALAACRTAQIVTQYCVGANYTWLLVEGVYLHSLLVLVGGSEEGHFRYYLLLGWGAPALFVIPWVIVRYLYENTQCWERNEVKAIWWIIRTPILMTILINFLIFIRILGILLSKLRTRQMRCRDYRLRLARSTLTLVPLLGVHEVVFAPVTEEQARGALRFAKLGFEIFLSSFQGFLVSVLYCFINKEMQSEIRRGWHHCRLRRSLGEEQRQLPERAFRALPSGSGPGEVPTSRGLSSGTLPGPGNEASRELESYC
Experimental: as §1, §2

GIPR E418K = molecular target: T4, GIPR E418K (Homo sapiens, UniProt P48546, E418K); test: cAMP accumulation; type: cell-based
T4 construct: host or cells: HEK293
T4 sequence (P48546 22-466 E418K): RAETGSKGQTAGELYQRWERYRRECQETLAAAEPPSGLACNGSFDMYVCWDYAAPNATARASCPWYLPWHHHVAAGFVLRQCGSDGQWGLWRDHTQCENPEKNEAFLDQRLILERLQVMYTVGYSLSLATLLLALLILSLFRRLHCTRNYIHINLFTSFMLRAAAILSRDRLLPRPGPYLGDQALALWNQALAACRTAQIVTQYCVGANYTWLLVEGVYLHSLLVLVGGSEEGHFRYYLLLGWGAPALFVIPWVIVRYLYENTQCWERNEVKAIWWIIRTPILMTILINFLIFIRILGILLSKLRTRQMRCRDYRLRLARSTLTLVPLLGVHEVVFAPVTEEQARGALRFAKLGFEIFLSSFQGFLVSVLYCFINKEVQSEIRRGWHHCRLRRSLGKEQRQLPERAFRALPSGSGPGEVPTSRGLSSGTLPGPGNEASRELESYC
Experimental: HEK293 (CRL-1573, American Type Culture Collection) and β-arrestin 1/2 knockout cells, generated from HEK293A[48], were used for cAMP measurement, homologues competition binding and β-arrestin 2 recruitment. […] Both cell lines were cultured at 5% CO2 at 37 °C in Roswell Park Memorial Institute GlutaMAX-I supplemented with 10% fetal bovine serum, 180 units ml^−1 penicillin, and 45 g ml^−1 streptomycin. For the cAMP and binding experiments, cells were transfected with the calcium phosphate precipitation method[49].
cAMP production was measured with the DiscoverX Hithunter cAMP assay according to the manufacturer’s protocol (DiscoverX). […] On the day of the assay, the cells were washed twice with HEPES-buffered saline (HBS) and incubated with HBS and 1 mM 3-isobutyl-1-methylxanthine for 30 min at 37 °C. […] After the incubation, the assay medium was removed from the plate and the cells were washed with 30 µl PBS and treated with 40 µl enzyme donor–lysis buffer–chemiluminescent reagents and 10 µl cAMP antibodies for 60 min before 40 µl enzyme acceptor solution added. After a 3-h incubation on a shaking table in the dark, the cAMP accumulation was measured based on luminescence with a Perkin Elmer EnVision 2104 Multilabel Microplate Reader.

GIPR K397N = molecular target: T5, GIPR K397N (Homo sapiens, UniProt P48546, K397N); test: cAMP accumulation; type: cell-based
T5 construct: host or cells: HEK293
T5 sequence (P48546 22-466 K397N): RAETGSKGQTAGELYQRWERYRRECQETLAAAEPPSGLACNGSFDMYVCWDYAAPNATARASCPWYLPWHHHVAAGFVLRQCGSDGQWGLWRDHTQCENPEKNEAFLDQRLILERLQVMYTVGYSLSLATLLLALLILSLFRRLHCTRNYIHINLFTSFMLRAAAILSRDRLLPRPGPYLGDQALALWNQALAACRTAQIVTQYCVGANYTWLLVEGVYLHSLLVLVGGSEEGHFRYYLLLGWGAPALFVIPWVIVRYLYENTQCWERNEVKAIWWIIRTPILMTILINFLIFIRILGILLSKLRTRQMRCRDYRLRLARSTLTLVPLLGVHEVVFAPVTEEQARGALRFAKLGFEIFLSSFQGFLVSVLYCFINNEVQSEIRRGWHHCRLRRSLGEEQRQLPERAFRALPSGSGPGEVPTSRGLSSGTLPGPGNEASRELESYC
Experimental: as §1, §2

B1: S382Y (protein)
chain: RAETGSKGQTAGELYQRWERYRRECQETLAAAEPPSGLACNGSFDMYVCWDYAAPNATARASCPWYLPWHHHVAAGFVLRQCGSDGQWGLWRDHTQCENPEKNEAFLDQRLILERLQVMYTVGYSLSLATLLLALLILSLFRRLHCTRNYIHINLFTSFMLRAAAILSRDRLLPRPGPYLGDQALALWNQALAACRTAQIVTQYCVGANYTWLLVEGVYLHSLLVLVGGSEEGHFRYYLLLGWGAPALFVIPWVIVRYLYENTQCWERNEVKAIWWIIRTPILMTILINFLIFIRILGILLSKLRTRQMRCRDYRLRLARSTLTLVPLLGVHEVVFAPVTEEQARGALRFAKLGFEIFLSYFQGFLVSVLYCFINKEVQSEIRRGWHHCRLRRSLGEEQRQLPERAFRALPSGSGPGEVPTSRGLSSGTLPGPGNEASRELESYC
Efficacy at 100pmol (cAMP) (GIPR S382Y): 0.008271
In vitro groups (cAMP) (GIPR variants (groups) [1]): LoF_camp
percentage_camp (GIPR variants (groups) [1]): <50% cAMP
Beta, cAMP (GIPR variants (groups) [1]): 0.008271
In vitro groups (β-arrestin) (GIPR variants (groups) [2]): LoF_arr
Beta, Barr (GIPR variants (groups) [2]): 0

B2: S415I (protein)
chain: RAETGSKGQTAGELYQRWERYRRECQETLAAAEPPSGLACNGSFDMYVCWDYAAPNATARASCPWYLPWHHHVAAGFVLRQCGSDGQWGLWRDHTQCENPEKNEAFLDQRLILERLQVMYTVGYSLSLATLLLALLILSLFRRLHCTRNYIHINLFTSFMLRAAAILSRDRLLPRPGPYLGDQALALWNQALAACRTAQIVTQYCVGANYTWLLVEGVYLHSLLVLVGGSEEGHFRYYLLLGWGAPALFVIPWVIVRYLYENTQCWERNEVKAIWWIIRTPILMTILINFLIFIRILGILLSKLRTRQMRCRDYRLRLARSTLTLVPLLGVHEVVFAPVTEEQARGALRFAKLGFEIFLSSFQGFLVSVLYCFINKEVQSEIRRGWHHCRLRRILGEEQRQLPERAFRALPSGSGPGEVPTSRGLSSGTLPGPGNEASRELESYC
Efficacy at 100pmol (cAMP) (GIPR S415I): 0.6572
In vitro groups (cAMP) (GIPR variants (groups) [1]): WT-like_camp
percentage_camp (GIPR variants (groups) [1]): >50% cAMP
Beta, cAMP (GIPR variants (groups) [1]): 0.6572
In vitro groups (β-arrestin) (GIPR variants (groups) [2]): WT-like_arr
Beta, Barr (GIPR variants (groups) [2]): 0.9285

B3: V399M (protein)
chain: RAETGSKGQTAGELYQRWERYRRECQETLAAAEPPSGLACNGSFDMYVCWDYAAPNATARASCPWYLPWHHHVAAGFVLRQCGSDGQWGLWRDHTQCENPEKNEAFLDQRLILERLQVMYTVGYSLSLATLLLALLILSLFRRLHCTRNYIHINLFTSFMLRAAAILSRDRLLPRPGPYLGDQALALWNQALAACRTAQIVTQYCVGANYTWLLVEGVYLHSLLVLVGGSEEGHFRYYLLLGWGAPALFVIPWVIVRYLYENTQCWERNEVKAIWWIIRTPILMTILINFLIFIRILGILLSKLRTRQMRCRDYRLRLARSTLTLVPLLGVHEVVFAPVTEEQARGALRFAKLGFEIFLSSFQGFLVSVLYCFINKEMQSEIRRGWHHCRLRRSLGEEQRQLPERAFRALPSGSGPGEVPTSRGLSSGTLPGPGNEASRELESYC
Efficacy at 100pmol (cAMP) (GIPR V399M): 0.2386
In vitro groups (cAMP) (GIPR variants (groups) [1]): LoF_camp
percentage_camp (GIPR variants (groups) [1]): <50% cAMP
Beta, cAMP (GIPR variants (groups) [1]): 0.2386
In vitro groups (β-arrestin) (GIPR variants (groups) [2]): LoF_arr
Beta, Barr (GIPR variants (groups) [2]): 0

B4: E418K (protein)
chain: RAETGSKGQTAGELYQRWERYRRECQETLAAAEPPSGLACNGSFDMYVCWDYAAPNATARASCPWYLPWHHHVAAGFVLRQCGSDGQWGLWRDHTQCENPEKNEAFLDQRLILERLQVMYTVGYSLSLATLLLALLILSLFRRLHCTRNYIHINLFTSFMLRAAAILSRDRLLPRPGPYLGDQALALWNQALAACRTAQIVTQYCVGANYTWLLVEGVYLHSLLVLVGGSEEGHFRYYLLLGWGAPALFVIPWVIVRYLYENTQCWERNEVKAIWWIIRTPILMTILINFLIFIRILGILLSKLRTRQMRCRDYRLRLARSTLTLVPLLGVHEVVFAPVTEEQARGALRFAKLGFEIFLSSFQGFLVSVLYCFINKEVQSEIRRGWHHCRLRRSLGKEQRQLPERAFRALPSGSGPGEVPTSRGLSSGTLPGPGNEASRELESYC
Efficacy at 100pmol (cAMP) (GIPR E418K): 0.7942
In vitro groups (cAMP) (GIPR variants (groups) [1]): WT-like_camp
percentage_camp (GIPR variants (groups) [1]): >50% cAMP
Beta, cAMP (GIPR variants (groups) [1]): 0.7942
In vitro groups (β-arrestin) (GIPR variants (groups) [2]): WT-like_arr
Beta, Barr (GIPR variants (groups) [2]): 0.9111

B5: K397N (protein)
chain: RAETGSKGQTAGELYQRWERYRRECQETLAAAEPPSGLACNGSFDMYVCWDYAAPNATARASCPWYLPWHHHVAAGFVLRQCGSDGQWGLWRDHTQCENPEKNEAFLDQRLILERLQVMYTVGYSLSLATLLLALLILSLFRRLHCTRNYIHINLFTSFMLRAAAILSRDRLLPRPGPYLGDQALALWNQALAACRTAQIVTQYCVGANYTWLLVEGVYLHSLLVLVGGSEEGHFRYYLLLGWGAPALFVIPWVIVRYLYENTQCWERNEVKAIWWIIRTPILMTILINFLIFIRILGILLSKLRTRQMRCRDYRLRLARSTLTLVPLLGVHEVVFAPVTEEQARGALRFAKLGFEIFLSSFQGFLVSVLYCFINNEVQSEIRRGWHHCRLRRSLGEEQRQLPERAFRALPSGSGPGEVPTSRGLSSGTLPGPGNEASRELESYC
Efficacy at 100pmol (cAMP) (GIPR K397N): 0.5221
In vitro groups (cAMP) (GIPR variants (groups) [1]): WT-like_camp
percentage_camp (GIPR variants (groups) [1]): >50% cAMP
Beta, cAMP (GIPR variants (groups) [1]): 0.5221
In vitro groups (β-arrestin) (GIPR variants (groups) [2]): LoF_arr
Beta, Barr (GIPR variants (groups) [2]): 0.3822
